The record followed here is publication PMC2225448 (Structure(London, England:1993), 2007).

The assay concerns the target Human SOCS4 (amino acids 274-437) (human, UniProt Q8WXH5 274-437). The assay can be described thus: crystal structure; ternary complex coexpressed and purified; crystals at 4°C from 10% PEG6000, 2M NaCl; molecular replacement, refined to 2.5 Å. The settings on record: both partners purified.

Chain of Human SOCS4 (amino acids 274-437) (Q8WXH5 274-437): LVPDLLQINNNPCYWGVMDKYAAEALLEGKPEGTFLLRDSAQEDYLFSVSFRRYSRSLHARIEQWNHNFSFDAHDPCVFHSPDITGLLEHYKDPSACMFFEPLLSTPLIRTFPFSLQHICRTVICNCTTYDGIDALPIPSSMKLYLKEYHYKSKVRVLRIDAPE

B1: ElonginB (natural protein, human)
chain: MDVFLMIRRHKTTIFTDAKESSTVFELKRIVEGILKRPPDEQRLYKDDQLLDDGKTLGECGFTSQTARPQAPATVGLAFRADDTFEALCIEPFSSPPELPDVMKPQDSGSSANEQAVQ
As to B1, the binding result was “binds”.
